One assay concerns the target p110γ-p101 complex (human | Sus scrofa (porcine), UniProt P48736 1-1102; O02696 1-877). Nature of the assay: BLI. Background: Biolayer interferometry detects binding as a change in optical thickness at a sensor tip.
For a further assay, the target named is p110γ-p84 complex (human | mouse, UniProt P48736 1-1102; Q3U6Q4 1-756). In words: BLI.
p110γ-p84 complex, sequence (P48736 whole entry, chain 1 of 2): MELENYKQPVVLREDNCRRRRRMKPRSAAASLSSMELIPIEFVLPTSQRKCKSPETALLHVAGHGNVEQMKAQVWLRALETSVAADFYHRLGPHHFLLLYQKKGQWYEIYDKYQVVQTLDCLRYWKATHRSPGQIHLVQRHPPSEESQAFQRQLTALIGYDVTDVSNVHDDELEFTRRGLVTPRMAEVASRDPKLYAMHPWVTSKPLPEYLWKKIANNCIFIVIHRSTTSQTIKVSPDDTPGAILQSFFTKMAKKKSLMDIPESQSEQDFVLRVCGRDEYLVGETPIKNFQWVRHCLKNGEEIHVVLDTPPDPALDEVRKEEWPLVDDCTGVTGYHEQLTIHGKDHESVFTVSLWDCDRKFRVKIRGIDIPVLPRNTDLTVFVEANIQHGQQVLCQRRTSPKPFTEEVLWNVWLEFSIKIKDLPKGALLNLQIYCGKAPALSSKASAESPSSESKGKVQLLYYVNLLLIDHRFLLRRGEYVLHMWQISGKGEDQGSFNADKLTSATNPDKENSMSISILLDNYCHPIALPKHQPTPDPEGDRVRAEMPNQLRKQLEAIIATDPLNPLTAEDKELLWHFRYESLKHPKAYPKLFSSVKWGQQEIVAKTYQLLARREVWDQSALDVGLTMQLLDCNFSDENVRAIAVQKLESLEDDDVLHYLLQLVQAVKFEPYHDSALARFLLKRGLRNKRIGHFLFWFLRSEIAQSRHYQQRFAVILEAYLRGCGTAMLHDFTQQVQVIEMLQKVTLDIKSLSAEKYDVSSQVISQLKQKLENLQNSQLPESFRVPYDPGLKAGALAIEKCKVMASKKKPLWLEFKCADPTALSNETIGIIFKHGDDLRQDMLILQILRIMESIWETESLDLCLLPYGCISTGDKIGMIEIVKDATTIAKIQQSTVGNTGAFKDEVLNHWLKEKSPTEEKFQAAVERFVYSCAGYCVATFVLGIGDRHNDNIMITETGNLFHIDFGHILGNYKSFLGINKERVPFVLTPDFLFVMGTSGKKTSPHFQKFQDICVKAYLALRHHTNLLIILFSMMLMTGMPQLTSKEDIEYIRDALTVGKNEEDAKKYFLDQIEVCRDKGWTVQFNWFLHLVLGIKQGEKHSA
p110γ-p84 complex, sequence (Q3U6Q4 whole entry, chain 2 of 2): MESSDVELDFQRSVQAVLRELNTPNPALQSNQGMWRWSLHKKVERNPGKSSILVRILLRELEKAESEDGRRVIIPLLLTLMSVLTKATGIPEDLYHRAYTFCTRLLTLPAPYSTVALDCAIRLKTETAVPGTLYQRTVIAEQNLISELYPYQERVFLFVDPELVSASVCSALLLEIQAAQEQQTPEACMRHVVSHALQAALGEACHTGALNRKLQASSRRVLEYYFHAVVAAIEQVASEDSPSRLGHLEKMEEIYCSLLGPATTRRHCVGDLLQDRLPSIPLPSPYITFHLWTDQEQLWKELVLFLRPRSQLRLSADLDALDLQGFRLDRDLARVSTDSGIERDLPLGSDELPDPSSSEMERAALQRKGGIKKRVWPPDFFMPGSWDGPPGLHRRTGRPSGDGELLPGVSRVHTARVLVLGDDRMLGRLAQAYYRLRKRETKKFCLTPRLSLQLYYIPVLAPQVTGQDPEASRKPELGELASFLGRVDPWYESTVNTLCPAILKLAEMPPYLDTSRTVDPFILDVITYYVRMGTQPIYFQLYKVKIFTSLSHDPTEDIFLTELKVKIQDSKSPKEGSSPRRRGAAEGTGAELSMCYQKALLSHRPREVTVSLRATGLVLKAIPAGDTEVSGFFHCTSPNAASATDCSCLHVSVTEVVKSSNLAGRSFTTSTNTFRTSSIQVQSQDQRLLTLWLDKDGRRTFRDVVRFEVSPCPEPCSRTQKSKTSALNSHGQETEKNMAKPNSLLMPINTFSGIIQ

p110γ-p101 complex, sequence (P48736 whole entry, chain 1 of 2): as the sequence (P48736 whole entry, chain 1 of 2) above
p110γ-p101 complex, sequence (O02696 whole entry, chain 2 of 2): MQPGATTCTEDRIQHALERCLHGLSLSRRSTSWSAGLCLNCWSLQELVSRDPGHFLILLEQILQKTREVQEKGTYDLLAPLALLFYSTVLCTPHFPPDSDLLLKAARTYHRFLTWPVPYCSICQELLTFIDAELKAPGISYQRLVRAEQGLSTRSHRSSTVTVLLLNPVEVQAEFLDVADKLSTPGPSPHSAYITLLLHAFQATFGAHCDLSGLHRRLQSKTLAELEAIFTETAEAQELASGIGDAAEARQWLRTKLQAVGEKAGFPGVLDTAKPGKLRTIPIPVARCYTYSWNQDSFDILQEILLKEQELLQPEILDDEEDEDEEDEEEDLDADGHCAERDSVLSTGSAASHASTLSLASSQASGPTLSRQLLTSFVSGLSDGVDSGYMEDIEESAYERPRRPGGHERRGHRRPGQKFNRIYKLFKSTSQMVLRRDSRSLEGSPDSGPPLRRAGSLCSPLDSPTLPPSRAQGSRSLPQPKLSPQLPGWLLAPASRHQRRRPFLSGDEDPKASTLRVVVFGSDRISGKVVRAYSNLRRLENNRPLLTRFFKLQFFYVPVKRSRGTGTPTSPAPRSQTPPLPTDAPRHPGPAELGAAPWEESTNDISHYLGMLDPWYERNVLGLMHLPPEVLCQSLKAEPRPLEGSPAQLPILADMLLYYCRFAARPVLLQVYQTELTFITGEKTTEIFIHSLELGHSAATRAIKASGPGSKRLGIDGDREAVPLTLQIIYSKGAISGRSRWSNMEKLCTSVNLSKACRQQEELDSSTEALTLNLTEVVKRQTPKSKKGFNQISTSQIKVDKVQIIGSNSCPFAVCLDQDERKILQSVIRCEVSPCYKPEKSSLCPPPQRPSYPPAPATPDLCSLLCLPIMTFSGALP

B1: Nanobody NB7-PIK3CG (VHH)
VHH: QVQLVESGGGLVQPGGSLRLSCAASGSIFSINAMGWYRQAPGKQRELVAHITSGGSTNYADSVKGRFTISRDNAKNTVYLQMNSLKPEDTAVYYCNEAGDPFLGSTWNGPPAFGSWGQGTQVTVSS
For B1, the figures for the Kd with p110γ-p101 complex and with p110γ-p84 complex were 3.1 nM and 3 nM, respectively.
